Results reported in patent US20210070876A1.

T1: His-tagged human CD73 ECD (human) (UniProt P21589)
T1 sequence: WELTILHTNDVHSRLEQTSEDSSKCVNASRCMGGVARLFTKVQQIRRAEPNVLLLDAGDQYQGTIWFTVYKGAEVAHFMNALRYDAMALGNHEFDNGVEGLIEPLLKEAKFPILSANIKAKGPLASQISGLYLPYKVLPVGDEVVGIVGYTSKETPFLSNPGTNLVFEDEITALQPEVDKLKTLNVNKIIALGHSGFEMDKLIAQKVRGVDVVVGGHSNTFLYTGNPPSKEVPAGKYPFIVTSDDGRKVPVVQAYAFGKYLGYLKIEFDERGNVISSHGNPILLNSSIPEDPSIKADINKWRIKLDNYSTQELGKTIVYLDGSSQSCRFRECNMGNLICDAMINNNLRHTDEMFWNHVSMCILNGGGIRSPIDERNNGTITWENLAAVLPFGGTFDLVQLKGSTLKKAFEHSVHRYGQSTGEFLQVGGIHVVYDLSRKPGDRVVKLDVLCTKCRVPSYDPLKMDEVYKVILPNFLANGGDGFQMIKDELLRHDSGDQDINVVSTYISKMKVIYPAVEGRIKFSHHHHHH

T2: human CD73 ECD fused C-terminally to human IgG1 Fc (human) (UniProt P21589)
T2 sequence: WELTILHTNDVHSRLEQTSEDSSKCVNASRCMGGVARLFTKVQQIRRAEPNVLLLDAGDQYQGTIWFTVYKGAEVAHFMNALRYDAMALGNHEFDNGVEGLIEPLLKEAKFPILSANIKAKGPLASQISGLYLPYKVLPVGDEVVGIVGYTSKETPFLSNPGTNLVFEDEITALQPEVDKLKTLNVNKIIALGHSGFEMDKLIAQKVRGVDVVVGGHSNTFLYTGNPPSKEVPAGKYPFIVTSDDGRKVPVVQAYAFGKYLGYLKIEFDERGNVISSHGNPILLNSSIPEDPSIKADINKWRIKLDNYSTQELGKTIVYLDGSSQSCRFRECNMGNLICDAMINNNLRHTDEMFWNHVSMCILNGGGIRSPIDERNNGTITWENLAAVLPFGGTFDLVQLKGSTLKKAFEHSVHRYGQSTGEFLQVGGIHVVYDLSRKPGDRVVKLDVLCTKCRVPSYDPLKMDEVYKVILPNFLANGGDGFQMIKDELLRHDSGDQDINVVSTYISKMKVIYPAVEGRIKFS


Key:
[1] = biological target: T1, His-tagged human CD73 ECD (human); test: SPR, mAb captured, His-tagged CD73 ECD injected
[2] = biological target: His-tagged cynomolgus CD73 ECD (cynomolgus monkey (Macaca fascicularis)); test: SPR, mAb captured, His-tagged CD73 ECD injected
[3] = biological target: T1, His-tagged human CD73 ECD (human); test: SEC-MALS, mAb:CD73 0.1:1
[4] = biological target: T1, His-tagged human CD73 ECD (human); test: SEC-MALS, mAb:CD73 1:1
[5] = biological target: human CD73 expressed on cells (human) (UniProt P21589); test: cell-based or functional assay; details: scale: % viable cells compared to untreated cells
[6] = biological target: T1, His-tagged human CD73 ECD (human); test: SEC-MALS, mAb:CD73 0.5:1
[7] = biological target: T2, human CD73 ECD fused C-terminally to human IgG1 Fc (human); test: SPR, Fc-tagged CD73 ECD captured, Fab injected
[8] = biological target: cynomolgus CD73 ECD fused C-terminally to human IgG1 Fc (cynomolgus monkey (Macaca fascicularis); human); test: SPR, Fc-tagged CD73 ECD captured, Fab injected

Kd [1]	koff [1]	kon [1]	Kd [2]	koff [2]	kon [2]	molecular mass of complex, Peak 2 (MW, kDa) [3]	molecular mass of complex, Peak 3 (MW, kDa) [3]	molecular mass of complex, Peak 4 (MW, kDa) [3]	molecular mass of complex, Peak 2 (MW, kDa) [4]	molecular mass of complex, Peak 3 (MW, kDa) [4]	molecular mass of complex, Peak 4 (MW, kDa) [4]	molecular mass of complex, Peak 2 (MW, kDa) [6]	molecular mass of complex, Peak 3 (MW, kDa) [6]	molecular mass of complex, Peak 4 (MW, kDa) [6]	Kd [7]	koff [7]	kon [7]	Kd [8]	koff [8]	Binder	other results
0.02 nM	2.5e-06 s⁻¹	110000 M⁻¹ s⁻¹	0.06 nM	6.6e-06 s⁻¹	140000 M⁻¹ s⁻¹	194 kDa	432 kDa	821 kDa	389 kDa	682 kDa	1040 kDa	870 kDa	559 kDa	1010 kDa	–	–	–	–	–	oleclumab analogue (MEDI9447, Medimmune) (antibody, INN chains, looked up, V domains shown, IgG1-TM) VH: EVQLLESGGGLVQPGGSLRLSCAASGFTFSSYAYSWVRQAPGKGLEWVSAISGSGGRTYYADSVKGRFTISRDNSKNTLYLQMNSLRAEDTAVYYCARLGYGRVDEWGRGTLVTVSS VL: QSVLTQPPSASGTPGQRVTISCSGSLSNIGRNPVNWYQQLPGTAPKLLIYLDNLRLSGVPDRFSGSKSGTSASLAISGLQSEDEADYYCATWDDSHPGWTFGGGTKLTVL	viable MDA-MB-468 cells in the presence of 300 µM AMP (WST-1) [5]: 70 to 80
–	–	–	–	–	–	–	–	–	–	–	–	–	–	–	0.06 nM	3.4e-05 s⁻¹	560000 M⁻¹ s⁻¹	0.07 nM	4.3e-05 s⁻¹	oleclumab analogue Fab fragment (Fab, INN chains, looked up, V domains shown, Fab) VH: EVQLLESGGGLVQPGGSLRLSCAASGFTFSSYAYSWVRQAPGKGLEWVSAISGSGGRTYYADSVKGRFTISRDNSKNTLYLQMNSLRAEDTAVYYCARLGYGRVDEWGRGTLVTVSS VL: QSVLTQPPSASGTPGQRVTISCSGSLSNIGRNPVNWYQQLPGTAPKLLIYLDNLRLSGVPDRFSGSKSGTSASLAISGLQSEDEADYYCATWDDSHPGWTFGGGTKLTVL	kon [8]: 580000 M⁻¹ s⁻¹
0.1 nM	5.6e-06 s⁻¹	57000 M⁻¹ s⁻¹	0.14 nM	1.3e-05 s⁻¹	84000 M⁻¹ s⁻¹	265 kDa	704 kDa	11800 kDa	270 kDa	511 kDa	802 kDa	277 kDa	566 kDa	3370 kDa	–	–	–	–	–	11E1 analogue (Innate Pharma) (antibody, from another filing, IgG1, V domains shown) VH: EIQLQQSGPELVKPGASVKVSCKASGYAFTSYNMYWVKQSHGKSLEWIGYIDPYNGGTSYNQKFKGKATLTVDKSSSTAYMHLNSLTSEDSAVYYCARGYGNYKAWFAYWGQGTLVTVSA VL: DAVMTQTPKFLLVSAGDRVTITCKASQSVTNDVAWYQQKPGQSPKLLIYYASNRYTGVPDRFTGSGYGTDFTFTISTVQAEDLAVYFCQQDYSSLTFGAGTKLELK	–
–	–	–	–	–	–	–	–	–	–	–	–	–	–	–	9.8 nM	0.0028 s⁻¹	290000 M⁻¹ s⁻¹	8.7 nM	0.0028 s⁻¹	11E1 analogue Fab fragment (Fab, from another filing, V domains shown) VH: EIQLQQSGPELVKPGASVKVSCKASGYAFTSYNMYWVKQSHGKSLEWIGYIDPYNGGTSYNQKFKGKATLTVDKSSSTAYMHLNSLTSEDSAVYYCARGYGNYKAWFAYWGQGTLVTVSA VL: DAVMTQTPKFLLVSAGDRVTITCKASQSVTNDVAWYQQKPGQSPKLLIYYASNRYTGVPDRFTGSGYGTDFTFTISTVQAEDLAVYFCQQDYSSLTFGAGTKLELK	kon [8]: 320000 M⁻¹ s⁻¹
0.02 nM	2.4e-06 s⁻¹	170000 M⁻¹ s⁻¹	0.33 nM	1.4e-05 s⁻¹	28000 M⁻¹ s⁻¹	121 kDa	236 kDa	339 kDa	148 kDa	246 kDa	363 kDa	143 kDa	245 kDa	349 kDa	–	–	–	–	–	CPX006 analogue (Corvus) (antibody, from another filing, IgG1, V domains shown) VH: QVQLVQSGAEVEKPGASVKVSCKASGYTFTSYWITWVRQAPGQGLEWMGDIYPGSGNTNYNEKFKTRVTITADKSTSTAYMELSSLRSEDTAVYYCAKEGGLTTEDYALDYWGQGTLVTVSS VL: EIVLTQSPATLSLSPGERATLSCRASKNVSTSGYSYMHWYQQKPGQAPRLLIYLASNLESGIPPRFSGSGYGTDFTLTINNIESEDAAYYFCQHSRELPFTFGQGTKVEIKR	–
–	–	–	–	–	–	–	–	–	–	–	–	–	–	–	80.3 nM	0.00053 s⁻¹	6600 M⁻¹ s⁻¹	71.6 nM	0.00048 s⁻¹	CPX006 analogue Fab fragment (Fab, from another filing, V domains shown) VH: QVQLVQSGAEVEKPGASVKVSCKASGYTFTSYWITWVRQAPGQGLEWMGDIYPGSGNTNYNEKFKTRVTITADKSTSTAYMELSSLRSEDTAVYYCAKEGGLTTEDYALDYWGQGTLVTVSS VL: EIVLTQSPATLSLSPGERATLSCRASKNVSTSGYSYMHWYQQKPGQAPRLLIYLASNLESGIPPRFSGSGYGTDFTLTINNIESEDAAYYFCQHSRELPFTFGQGTKVEIKR	kon [8]: 6700 M⁻¹ s⁻¹
